From PMC6312871 (Heliyon, 2018)
Where “and” joins values, the source holds several entries; their conditions need not be identical. Equal values may be shown once.

Legend:
[1] = biological target: Photosystem I (monomer) (Prochlorococcus marinus MIT9313 (endogenous in thylakoid membranes)) (UniProt Q7V510); assay: native gel or EMSA
[2] = biological target: Photosystem I (monomer) (Prochlorococcus marinus MIT9313 (endogenous in thylakoid membranes)) (UniProt Q7V510); assay: sucrose gradient centrifugation
[3] = biological target: Photosystem II (monomer, core complex) (Prochlorococcus marinus MIT9313 (endogenous in thylakoid membranes)) (UniProt Q7V6I0); assay: native gel or EMSA
Sequence of Photosystem II (monomer, core complex) (Prochlorococcus marinus MIT9313 (endogenous in thylakoid membranes)) (Q7V6I0 whole entry, looked up, one chain of several): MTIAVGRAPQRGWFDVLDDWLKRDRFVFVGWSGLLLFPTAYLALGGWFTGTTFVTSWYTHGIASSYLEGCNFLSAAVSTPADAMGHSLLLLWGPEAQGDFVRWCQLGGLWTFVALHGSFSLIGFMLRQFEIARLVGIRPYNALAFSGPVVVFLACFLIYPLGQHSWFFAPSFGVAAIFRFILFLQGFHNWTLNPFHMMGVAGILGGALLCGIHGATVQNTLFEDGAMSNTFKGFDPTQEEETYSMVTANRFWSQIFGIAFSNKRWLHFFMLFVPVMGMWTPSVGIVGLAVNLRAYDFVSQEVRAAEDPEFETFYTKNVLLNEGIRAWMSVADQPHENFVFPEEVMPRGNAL

[4] = biological target: the molecule itself; assay: native gel or EMSA
[5] = biological target: Photosystem II (monomer, core complex) (Prochlorococcus marinus MIT9313 (endogenous in thylakoid membranes)) (UniProt Q7V6I0); assay: native gel or EMSA; remark: listed apart in the source

## Photosystem I (monomer) (from UniProt Q7V510 1-776; Q7V511 1-749; Q7V8Y4 1-68) (complex)
[1]
  stoichiometry N: 3
[2]
  stoichiometry N: 3

## Photosystem II (monomer, core complex) (from UniProt Q7V6I0 1-351; Q7V4Q1 1-49; Q7V4P9 1-65)
[3]
  stoichiometry N: 2

B1: light-harvesting antenna protein PcbB (divinyl chlorophyll a/b-binding protein) (natural protein, UniProt Q7V6U4 1-350, looked up)
chain: MQTYGNPNPTYGWWAGNAGTTNRSGKFLAAHIAHTGLMAFWAGSFTLFELSRYDPSVPMGHQPLVALPHLATLGIGVGDGGVITDTYPIVVTAVLHLVLSMVYAAGGLMHSLLFNGDIGEMGVKWARKFDFKWDDPDKLTFILGHHLFLLGLGNVQFVEWAKYYGLYDNAEGVVRTVVPNLNIGMVWNAQFNFLAINSLEDVMGGHAFLALFMMSGGLWHIVTKQAGEYTTFKGKGILSAEAQLSWALAGVGWMALVAAFWCASNTTIYPDTFFGEVLDLKFSISPYWVDTANLPEGTYTSRAWLTNIHYYLGFFYIQGHLWHALRALGFDFKRVSNAIGNADSATITLN
[4]
  stoichiometry N: 2 and 3 and 4
[5]
  stoichiometry N (PcbB per PSII dimer): 8
